One molecule from patent US20170292963A1 (Johns Hopkins, published 2017) can be followed below.

The target of the assay is T1, Human NPTX2 (native protein in human CSF; antigen of the anti-human NPTX2 antibody) (human, UniProt P47972 17-431).
T1 construct: In CSF the protein is disulfide-linked with NPTX1 in heterocomplexes; also called Narp
T1 sequence: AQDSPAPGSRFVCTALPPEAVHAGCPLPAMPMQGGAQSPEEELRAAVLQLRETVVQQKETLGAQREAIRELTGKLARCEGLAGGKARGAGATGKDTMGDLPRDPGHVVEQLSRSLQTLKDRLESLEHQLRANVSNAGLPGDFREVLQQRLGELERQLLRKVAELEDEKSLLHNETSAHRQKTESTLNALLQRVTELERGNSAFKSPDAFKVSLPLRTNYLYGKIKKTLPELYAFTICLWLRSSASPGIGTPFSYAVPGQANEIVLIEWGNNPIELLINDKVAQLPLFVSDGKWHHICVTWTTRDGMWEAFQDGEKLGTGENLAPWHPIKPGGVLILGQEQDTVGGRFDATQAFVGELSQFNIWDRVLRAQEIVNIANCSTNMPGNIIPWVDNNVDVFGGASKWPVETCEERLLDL
In words: co-immunoprecipitation from human CSF.

B1: Human NPTX1 (native protein in human CSF; antigen of the anti-human NPTX1 antibody) (other)
chain: QDFGPTRFICTSVPVDADMCAASVAAGGAEELRSSVLQLRETVLQQKETILSQKETIRELTAKLGRCESQSTLDPGAGEARAGGGRKQPGSGKNTMGDLSRTPAAETLSQLGQTLQSLKTRLENLEQYSRLNSSSQTNSLKDLLQSKIDELERQVLSRVNTLEEGKGGPRNDTEERVKIETALTSLHQRISELEKGQKDNRPGDKFQLTFPLRTNYMYAKVKKSLPEMYAFTVCMWLKSSATPGVGTPFSYAVPGQANELVLIEWGNNPMEILINDKVAKLPFVINDGKWHHICVTWTTRDGVWEAYQDGTQGGSGENLAPYHPIKPQGVLVLGQEQDTLGGGFDATQAFVGELAHFNIWDRKLTPGEVYNLATCSTKALSGNVIAWAESHIEIYGGATKWTFEACRQIN
For B1, the binding result is reported as “binds”.
